Holding throughout (type): cell-based
Experiment [1] concerns QRFPR. Kind of experiment: In situ PLA detection of RAB11-QRFPR double positive endosomes in MCF7 cells. The following applies: GDF15 stimulation alone; FIG. 5. The source says: The RAB11 protein is a marker for recycling endosomes back to the cell surface, and the RAB11 pathway is also involved in exosome assembly (Savina et al., 2005; Savina et al., 2002). RAB11 was thus thought to be a likely candidate to be involved in QRFPR reduction on the cell surface induced by GDF15
An in situ PLA assay was developed to detect the proximity of RAB11 and QRFPR. In the absence of GDF15, only a low signal is observed (FIGS. 5A and 5C).
We choose to use this assay as a way to investigate if the activity of GDF15 could be inhibited by various agents. […] GDF15-induced formation of RAB11/QRFPR endosomes is inhibited by QRFPR peptides (FIG. 9A-D). Equal amounts of a mastermix of GDF15 was aliquoted and pre-incubated in PBS with the various receptor fragment before addition to cells. Sequentially, the cells were treated with either PBS, GDF15 or GDF15/QRFPR-derived peptide mixes.

The target in experiment [2] is T1, QRFPR (Homo sapiens, UniProt Q96P65).
T1 construct: endogenous in cells
T1 sequence (Q96P65 1-431): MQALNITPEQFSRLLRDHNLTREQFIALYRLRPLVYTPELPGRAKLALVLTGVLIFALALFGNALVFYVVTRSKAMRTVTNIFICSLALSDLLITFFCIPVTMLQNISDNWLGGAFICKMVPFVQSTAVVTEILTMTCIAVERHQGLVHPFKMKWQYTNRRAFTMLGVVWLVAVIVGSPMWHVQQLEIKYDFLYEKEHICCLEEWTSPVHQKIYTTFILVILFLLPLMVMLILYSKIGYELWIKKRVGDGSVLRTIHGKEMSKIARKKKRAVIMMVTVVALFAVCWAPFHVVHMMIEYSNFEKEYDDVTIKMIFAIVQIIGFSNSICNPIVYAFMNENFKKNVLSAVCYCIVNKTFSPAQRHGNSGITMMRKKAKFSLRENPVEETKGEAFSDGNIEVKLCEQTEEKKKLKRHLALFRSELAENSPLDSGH
Kind of experiment: In situ PLA detection of CD9-QRFPR proximity. The conditions noted are these: GDF15 30 minutes; FIG. 4. From the text: The tetraspanin CD9 has dual roles, both in endosome trafficking and in exosome secretion (Mazurov et al.). An in situ PLA assay was developed to detect the proximity of CD9 and QRFPR using antibodies against CD9 and QRFPR. In the absence of GDF15, only a low signal level is observed (FIGS. 4A and 4C).

Experiment [3] has as its target T1, QRFPR. Kind of experiment: In situ PLA detection of RAB4-QRFPR double positive endosomes. The conditions noted are these: GDF15 stimulation alone; FIG. 7. On the procedure: An assay was developed to detect the proximity of RAB4-QRFPR using antibodies against RAB4 and QRFPR.
In short, the cells were serum starved overnight then pre-incubated with blocking antibodies towards extracellular parts of QRFPR for 2 hrs prior to GDF15 treatment (1 μg/ml) for 30 minutes. The levels of formed RAB4-QRFPR complexes were measured by visualization of formed RCA products using the Duolink is PLA system (see FIG. 11).

Experiment [4] has as its target T2, CLPTM1 (Homo sapiens, UniProt O96005).
T2 construct: endogenous in cells; host or cells: NK-92 cells
T2 sequence (O96005 1-669): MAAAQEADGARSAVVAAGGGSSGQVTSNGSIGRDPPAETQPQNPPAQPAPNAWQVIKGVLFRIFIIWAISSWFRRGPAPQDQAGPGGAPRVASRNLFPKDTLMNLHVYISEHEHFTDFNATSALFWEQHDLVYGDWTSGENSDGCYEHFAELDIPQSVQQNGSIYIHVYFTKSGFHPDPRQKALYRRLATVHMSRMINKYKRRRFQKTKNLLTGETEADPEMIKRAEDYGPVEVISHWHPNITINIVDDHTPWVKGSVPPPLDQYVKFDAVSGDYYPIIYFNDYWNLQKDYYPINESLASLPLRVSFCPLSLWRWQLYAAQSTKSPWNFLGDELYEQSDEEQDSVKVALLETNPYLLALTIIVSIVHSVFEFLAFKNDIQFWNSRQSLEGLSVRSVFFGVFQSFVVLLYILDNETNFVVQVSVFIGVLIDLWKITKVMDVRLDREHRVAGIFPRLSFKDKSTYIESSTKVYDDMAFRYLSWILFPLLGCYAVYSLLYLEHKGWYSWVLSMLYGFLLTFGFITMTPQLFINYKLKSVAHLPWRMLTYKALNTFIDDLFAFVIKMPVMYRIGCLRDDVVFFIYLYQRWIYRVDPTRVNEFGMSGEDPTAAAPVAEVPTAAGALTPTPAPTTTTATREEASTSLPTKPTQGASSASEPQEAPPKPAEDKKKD
Nature of the experiment: In situ PLA detection of the CLPTM1-TGFBRII complex in NK cells. The conditions noted are these: GDF15 treatment; FIG. 15. From the text: It was not known whether TGFBRI localised with CLPTM1 independently from the corresponding Type II receptor TGFBRII, or whether the TGFBRI-TGFBRII heterocomplex associated with CLPTM1 upon GDF15 stimulation. In order to determine this, a second in situ PLA assay was developed, using antibodies towards TGFBRII in concert with CLPTM1 antibodies from another species. […] (FIG. 15)

The target of experiment [5] is T2, CLPTM1. Nature of the experiment: Detection of phosphorylated GSK3b (9/21) in NK-92 cells (in situ PLA, Western blot). The conditions noted are these: GDF15 in the presence of control antibody, FIG. 16. On the procedure: A-C) In situ PLA detection of phosphorylated GSK3b (GSK3b-p(9/21) using a pair of proximity probes A) Negative control cells with no added GDF15. B) Cells after exposure to GDF15 and control antibody. C) Cells after exposure to GDF15 following pre-incubation with a monoclonal antibody targeting the extracellular domain of CLPTM1 D) Western Blot indicating the levels of phosphorylated GSKb (p-GSKb). Lane 1—No GDF15. Lane 2—GDF15 stim+ ctrl ab. Lane 3 GDF15 stim+ mAb mouse (antibody used in in situ PLA experiment).
The effect of antibodies binding CLPTM1 on inhibiting GDF15 induced downstream signalling through the TGFB heterotetrameric complex was assessed by detecting phosphorylated GSK3b-pGSK3b(9/21) in an in situ PLA assay. Phosphorylation of GSK3b is known to cause immunosuppressive effects i.e. suppress immune cell function.

Consider “GDF15: Growth and differentiation factor 15, from mammalian source or recombinant from E. coli (Abcam, Biovision)”, for which the “RAB11-QRFPR double positive endosomes” value with QRFPR [1] is “rapid detection of RAB11-QRFPR double positive endosomes”. The CD9-QRFPR complex signal entry with QRFPR [2] is recorded as “higher level of signal”. The “RAB4-QRFPR double positive endosomes” value with QRFPR [3] is “formation of RAB4-QRFPR double positive endosomes was detected”. Besides, the “CLPTM1 proximity to TGFBRII” value with CLPTM1 [4] was “induced CLPTM1 proximity to TGFBRII”. Also, the “9/21 phosphorylation of GSK3b” value in the experiment with CLPTM1 [5] is “induces 9/21 phosphorylation of GSK3b”.

The values are drawn from patent US20180282403A1, “AGENTS FOR REDUCING THE ACTIVITY OF GDF15” (GENAGON THERAPEUTICS AB, priority 2015, published 2018).
